{"source": "patent US20150167004", "about": "“OLIGONUCLEOTIDE INHIBITORS OF DNA […] AND THEIR USE IN TREATING DISEASES” (METHEOR THERAPEUTICS CORPORATION, published 2015)", "key": {"[1]": {"molecular_target": "T1, DNMT3A (Homo sapiens, UniProt Q9Y6K1 Q9Y6K1:1-912)", "T1 sequence (Q9Y6K1 whole entry, one chain of several)": "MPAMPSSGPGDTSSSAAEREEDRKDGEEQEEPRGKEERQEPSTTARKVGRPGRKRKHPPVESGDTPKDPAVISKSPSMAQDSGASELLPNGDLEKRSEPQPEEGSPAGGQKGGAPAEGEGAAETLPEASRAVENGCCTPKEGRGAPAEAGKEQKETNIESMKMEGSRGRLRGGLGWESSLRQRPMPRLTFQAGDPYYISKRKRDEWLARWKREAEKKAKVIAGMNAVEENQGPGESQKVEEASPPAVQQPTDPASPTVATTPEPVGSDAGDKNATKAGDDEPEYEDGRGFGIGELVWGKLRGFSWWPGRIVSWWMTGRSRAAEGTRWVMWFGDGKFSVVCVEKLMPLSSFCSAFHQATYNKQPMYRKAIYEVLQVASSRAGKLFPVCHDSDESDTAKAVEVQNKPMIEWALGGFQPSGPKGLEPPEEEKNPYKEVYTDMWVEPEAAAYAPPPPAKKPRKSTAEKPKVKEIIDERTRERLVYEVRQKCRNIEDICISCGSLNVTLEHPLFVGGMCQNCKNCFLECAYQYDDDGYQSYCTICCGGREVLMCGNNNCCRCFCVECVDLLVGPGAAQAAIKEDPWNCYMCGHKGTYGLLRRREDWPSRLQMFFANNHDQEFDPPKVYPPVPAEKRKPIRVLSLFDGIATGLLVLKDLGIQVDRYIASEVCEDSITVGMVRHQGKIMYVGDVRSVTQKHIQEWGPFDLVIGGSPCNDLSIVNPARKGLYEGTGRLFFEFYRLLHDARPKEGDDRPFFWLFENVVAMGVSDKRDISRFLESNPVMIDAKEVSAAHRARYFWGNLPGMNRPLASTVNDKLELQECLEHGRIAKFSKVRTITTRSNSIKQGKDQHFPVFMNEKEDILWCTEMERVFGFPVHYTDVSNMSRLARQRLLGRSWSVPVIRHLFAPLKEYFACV", "assay": "inhibition; tritiated methyl incorporation from SAM"}, "[2]": {"molecular_target": "T2, DNMT1 (Homo sapiens, UniProt P26358 P26358:1-1616)", "T2 sequence (P26358 whole entry, one chain of several)": "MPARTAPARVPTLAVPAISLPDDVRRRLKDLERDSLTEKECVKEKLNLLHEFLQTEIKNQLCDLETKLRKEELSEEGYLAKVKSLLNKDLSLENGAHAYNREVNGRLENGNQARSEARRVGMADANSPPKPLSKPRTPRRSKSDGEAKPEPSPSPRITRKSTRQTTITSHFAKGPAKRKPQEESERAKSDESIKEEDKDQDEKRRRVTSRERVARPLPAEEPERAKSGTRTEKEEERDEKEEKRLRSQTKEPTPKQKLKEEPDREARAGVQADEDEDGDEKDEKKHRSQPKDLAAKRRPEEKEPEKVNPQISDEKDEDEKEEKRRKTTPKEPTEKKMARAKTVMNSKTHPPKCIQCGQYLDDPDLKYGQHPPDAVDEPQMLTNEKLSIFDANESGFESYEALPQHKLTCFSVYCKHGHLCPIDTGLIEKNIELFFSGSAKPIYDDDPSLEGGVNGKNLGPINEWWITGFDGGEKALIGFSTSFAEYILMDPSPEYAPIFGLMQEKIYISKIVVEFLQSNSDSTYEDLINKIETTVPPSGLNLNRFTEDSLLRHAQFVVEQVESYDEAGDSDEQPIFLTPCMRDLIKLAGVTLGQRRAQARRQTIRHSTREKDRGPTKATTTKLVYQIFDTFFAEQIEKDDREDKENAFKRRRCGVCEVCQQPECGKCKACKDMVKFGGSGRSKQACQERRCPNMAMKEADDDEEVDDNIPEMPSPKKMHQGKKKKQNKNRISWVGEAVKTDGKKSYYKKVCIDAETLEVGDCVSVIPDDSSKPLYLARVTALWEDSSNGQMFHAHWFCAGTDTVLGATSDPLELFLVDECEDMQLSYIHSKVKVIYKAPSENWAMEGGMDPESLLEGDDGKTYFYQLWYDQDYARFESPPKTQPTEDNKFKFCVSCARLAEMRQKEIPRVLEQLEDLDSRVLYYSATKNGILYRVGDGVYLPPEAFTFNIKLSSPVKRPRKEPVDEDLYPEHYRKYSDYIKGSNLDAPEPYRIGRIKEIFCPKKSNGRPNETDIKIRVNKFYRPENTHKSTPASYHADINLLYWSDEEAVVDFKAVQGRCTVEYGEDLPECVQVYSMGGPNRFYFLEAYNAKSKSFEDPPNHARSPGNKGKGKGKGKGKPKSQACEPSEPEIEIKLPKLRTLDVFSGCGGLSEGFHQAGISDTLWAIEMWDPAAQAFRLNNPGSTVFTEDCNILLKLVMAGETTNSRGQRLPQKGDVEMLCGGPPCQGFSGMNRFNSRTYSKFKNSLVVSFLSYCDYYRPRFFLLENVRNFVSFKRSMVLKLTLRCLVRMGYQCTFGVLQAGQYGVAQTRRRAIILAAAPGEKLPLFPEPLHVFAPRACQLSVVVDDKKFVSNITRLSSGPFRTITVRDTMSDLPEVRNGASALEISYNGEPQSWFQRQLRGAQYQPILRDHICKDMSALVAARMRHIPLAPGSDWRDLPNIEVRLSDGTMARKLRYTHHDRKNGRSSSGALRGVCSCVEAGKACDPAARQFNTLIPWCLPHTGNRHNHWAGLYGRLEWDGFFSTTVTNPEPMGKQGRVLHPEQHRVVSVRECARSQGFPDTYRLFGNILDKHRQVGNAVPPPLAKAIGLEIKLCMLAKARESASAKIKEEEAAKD", "assay": "inhibition; tritiated methyl incorporation from SAM"}, "[3]": {"molecular_target": "T3, DNMT3B (DNMT3b1) (Homo sapiens, UniProt Q9UBC3 Q9UBC3:1-853)", "assay": "inhibition; tritiated methyl incorporation from SAM"}, "[4]": {"molecular_target": "T2, DNMT1", "assay": "inhibition; 25 nM DNMT1, poly(dI:dC) substrate, 1 uM SAM; Table 5 gives 348 nM", "details": "hairpin", "procedure": "(§1) DNA Methyltransferase 1 (DNMT1) was essentially assayed as described in Tollefsbol, T. O. and Hutchison III, C. A.: J. Biol. Chem. (1995), 270:18543-50 with the following modifications. Assay reaction was 5 μl volume, the DNA substrate was poly (dI:dC) 0.001 mg/ml and co-factor S-AdoMet at 1.0 μM; human DNMT1 was added at 25 nM. Reaction: S-adenosyl-L-[methyl-3H] methionine+DNA=S-adenosyl-L-homocysteine+DNA 5-[methyl-3H]-cytosine. S-AdoHCy was used as a positive control for the inhibition reaction."}, "[5]": {"molecular_target": "T1, DNMT3A", "assay": "inhibition; 25 nM DNMT3A, lambda DNA substrate, 1 uM SAM; Table 5 gives 1.5 uM"}, "[6]": {"molecular_target": "T3, DNMT3B (DNMT3b1)", "assay": "inhibition; 25 nM DNMT3B, lambda DNA substrate, 1 uM SAM; Table 5 gives 18.9 uM"}, "[7]": {"molecular_target": "T2, DNMT1", "assay": "inhibition; 25 nM DNMT1, poly(dI:dC) substrate, 1 uM SAM; Table 5 gives 5.52 uM", "details": "hairpin", "procedure": "as §1"}, "[8]": {"molecular_target": "T1, DNMT3A", "assay": "inhibition; 25 nM DNMT3A, lambda DNA substrate, 1 uM SAM"}, "[9]": {"molecular_target": "T3, DNMT3B (DNMT3b1)", "assay": "inhibition; 25 nM DNMT3B, lambda DNA substrate, 1 uM SAM"}, "[10]": {"molecular_target": "T2, DNMT1", "assay": "inhibition; 25 nM DNMT1, poly(dI:dC) substrate, 1 uM SAM; table header cites SEQ 5 and 6 but oligo is MTC-424F/R; Table 5 gives 1.43 uM", "procedure": "as §1"}, "[11]": {"molecular_target": "T3, DNMT3B (DNMT3b1)", "assay": "inhibition; tritiated methyl incorporation from SAM; IC50 not estimable in Table 4"}}, "data": [{"binder": "MTC-429 (dsDNA, 5-aza-5,6-dihydro-dC at 8 of F strand; 5mC at 8 of R strand; phosphodiester [F strand: 8; R strand: 8]) DNA 1: GTACATGCGCTCCAGA DNA 2: TCTGGAGCGCATGTAC", "values": [{"measurement": "IC50", "setting": "[1]", "value": "> 50000", "unit": "nM"}, {"measurement": "IC50", "setting": "[2]", "value": 906, "unit": "nM"}]}, {"binder": "CCTATGCGATCGAGTTTTCTCGATCGCATAGG (structured_DNA, 5mC at 7 and 11; deoxy-zebularine at 21 and 25; PS backbone [7,11,21,25])", "note": "[MTC-433]", "values": [{"measurement": "IC50", "setting": "[2]; hairpin", "value": 4.22, "unit": "nM"}]}, {"binder": "CCTATGCGATCGAGTTTTCTCGATCGCATAGG (structured_DNA, 5mC at 7 and 11; 5-aza-5,6-dihydro-dC at 21 and 25; phosphodiester [7,11,21,25])", "note": "[MTC-425 (MTC-422m)]", "values": [{"measurement": "IC50", "setting": "[1]", "value": 6690, "unit": "nM"}, {"measurement": "IC50", "setting": "[2]; hairpin", "value": 504, "unit": "nM"}, {"measurement": "IC50", "setting": "[3]", "value": "> 100000", "unit": "nM"}]}, {"binder": "CCTATGCGATCGAGTTTTCTCGATCGCATAGG (structured_DNA, zebularine (pyrimidin-2-one ribonucleoside) at 21 and 25; phosphodiester [21,25])", "note": "[MTC-423]", "values": [{"measurement": "IC50", "setting": "[4]", "value": 363, "unit": "nM"}, {"measurement": "IC50", "setting": "[5]", "value": 1600, "unit": "nM"}, {"measurement": "IC50", "setting": "[6]", "value": 17500, "unit": "nM"}]}, {"binder": "CCTATGCGATCGAGTTTTCTCGATCGCATAGG (structured_DNA, 5mC at 7 and 11; zebularine (pyrimidin-2-one ribonucleoside) at 21 and 25; phosphodiester [7,11,21,25])", "note": "[MTC-427 (MTC-423m)]", "values": [{"measurement": "IC50", "setting": "[1]", "value": 1520, "unit": "nM"}, {"measurement": "IC50", "setting": "[2]; hairpin", "value": 295, "unit": "nM"}, {"measurement": "IC50", "setting": "[3]", "value": 6200, "unit": "nM"}]}, {"binder": "CCTATGCGATCGAGTTTTCTCGATCGCATAGG (structured_DNA, deoxy-zebularine at 21 and 25; PS backbone [21,25])", "note": "[MTC-432]", "values": [{"measurement": "IC50", "setting": "[2]; hairpin", "value": 8.3, "unit": "nM"}]}, {"binder": "CCTATGCGATCGAGTTTTCTCGATCGCATAGG (structured_DNA, 5-aza-5,6-dihydro-dC at 21 and 25; phosphodiester [21, 25 (5-aza-5,6-dihydro-dC)])", "note": "[MTC-422]", "values": [{"measurement": "IC50", "setting": "[7]", "value": 1430, "unit": "nM"}, {"measurement": "IC50", "setting": "[8]", "value": 5700, "unit": "nM"}, {"measurement": "IC50", "setting": "[9]", "value": 21300, "unit": "nM"}]}, {"binder": "MTC-424 (dsDNA, 5-aza-5,6-dihydro-dC at 8 of F strand; phosphodiester [F strand: 8]) DNA 1: GTACATGCGCTCCAGA DNA 2: TCTGGAGCGCATGTAC", "values": [{"measurement": "IC50", "setting": "[10]", "value": 1940, "unit": "nM"}, {"measurement": "IC50", "setting": "[8]", "value": 10200, "unit": "nM"}, {"measurement": "IC50", "setting": "[11]", "value": "> 100000", "unit": "nM"}]}]}
